From patent US10098870B2 (JENKEM TECHNOLOGY CO., LTD. (BEIJING), priority 2013, dated 2018)

How the values were obtained:
[1] = Body weight, survival and tolerance of mice bearing plc/prf/5 (Example 6); format: in vivo, nude mouse; settings: mean ± SE
From the text: Wherein QW×4W represents intravenous injection once a week for 4 weeks, BIW×4W represents intravenous injection […] for 4 weeks, the same below. (2) Experimental Results

[2] = Body weight, survival and tolerance of mice bearing A549 (Example 10); settings: mean ± SE;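 further: nude mice, each given 1.0×10^7 A549 tumor cells in the right shoulder region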
Procedure: 1.0×10^7 of A549 tumor cells were suspended in 0.1 ml of PBS, inoculated to each nude mouse at the right shoulder, and there were totally 36 mice inoculated.

[3] = test system: Calu-6 human lung cancer cell; experiment: Anti-tumor effect on xenograft tumor model of Calu-6 in nude mice (Example 9); settings: for T/C (%) RTV / T/C (%) TW: vs physiological saline; for RTV / Tumor weight: 42nd day, Mean ± SEM; for Tumor volume: mean ± SE;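 on all read-outs here: each nude mouse received 5.0×10^6 Calu-6 cells implanted at the right shoulder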
Procedure: Calu-6 cells were cultured with a monolayer in vitro in MEM medium supplied with heat-inactivated fetal bovine serum with a volume ratio of 10%, and an incubator at 37° C. with the air containing CO2 with a proportion of 5%. The tumor cells were passaged with digestion by trypsin-EDTA twice a week. The cells in the exponential growth phase were collected, counted, and used for inoculation.
5.0×10^6 of Calu-6 tumor cells were suspended in 0.1 ml of PBS, inoculated to each nude mouse at the right shoulder, and there were totally 34 mice inoculated.

[4] = Body weight, survival and tolerance of mice bearing Hep3B (Example 7); format: in vivo, mouse; settings: mean ± SE
[5] = day 17 after inoculation, 30 mg/kg i.v. BIW×4W
[6] = day 17 after inoculation, 45 mg/kg i.v. QW×4W
[7] = day 20 after inoculation, 30 mg/kg i.v. BIW×4W
[8] = day 24 after inoculation, 30 mg/kg i.v. BIW×4W
[9] = day 24 after inoculation, 45 mg/kg i.v. QW×4W
[10] = day 31 after inoculation, 30 mg/kg i.v. BIW×4W
[11] = day 31 after inoculation, 45 mg/kg i.v. QW×4W
[12] = day 38 after inoculation, 30 mg/kg i.v. BIW×4W
[13] = day 38 after inoculation, 45 mg/kg i.v. QW×4W
[14] = day 28 after inoculation, 30 mg/kg i.v. BIW×4W
[15] = day 28 after inoculation, 45 mg/kg i.v. QW×4W
[16] = day 35 after inoculation, 30 mg/kg i.v. BIW×4W
[17] = day 35 after inoculation, 45 mg/kg i.v. QW×4W

Q: What does the source list for “monomethoxy polyethylene glycol (20K)-glutamic acid dipeptide-rapamycin conjugate [LPR-2]”?
A: Body weight of animal ([1]; day 10 after inoculation, 30 mg/kg i.v. BIW×4W): 19.9 ± 0.5 g; Body weight of animal ([1]; day 10 after inoculation, 45 mg/kg i.v. QW×4W): 19.8 ± 0.5 g; Body weight of animal ([1]; day 13 after inoculation, 30 mg/kg i.v. BIW×4W): 19.6 ± 0.8 g; Body weight of animal ([1]; day 13 after inoculation, 45 mg/kg i.v. QW×4W): 18.9 ± 0.5 g; Body weight of animal [1, 5]: 20.7 ± 0.7 g; Body weight of animal [1, 6]: 20.2 ± 0.3 g; Body weight of animal [1, 7]: 20.4 ± 0.6 g; Body weight of animal ([1]; day 20 after inoculation, 45 mg/kg i.v. QW×4W): 19.7 ± 0.3 g; Body weight of animal [1, 8]: 20.6 ± 0.7 g; Body weight of animal [1, 9]: 21.1 ± 0.3 g; Body weight of animal ([1]; day 27 after inoculation, 30 mg/kg i.v. BIW×4W): 20.5 ± 0.6 g; Body weight of animal ([1]; day 27 after inoculation, 45 mg/kg i.v. QW×4W): 20.7 ± 0.2 g; Body weight of animal [1, 10]: 20.1 ± 0.6 g; Body weight of animal [1, 11]: 21.0 ± 0.2 g; Body weight of animal ([1]; day 34 after inoculation, 30 mg/kg i.v. BIW×4W): 19.5 ± 0.6 g; Body weight of animal ([1]; day 34 after inoculation, 45 mg/kg i.v. QW×4W): 19.7 ± 0.5 g; Body weight of animal [1, 12]: 19.8 ± 0.7 g; Body weight of animal [1, 13]: 20.7 ± 0.3 g; Body weight of animal [2, 8]: 21.6 ± 0.5 g; Body weight of animal [2, 9]: 20.9 ± 0.3 g; Body weight of animal [2, 14]: 20.9 ± 0.4 g; Body weight of animal [2, 15]: 20.8 ± 0.1 g; Body weight of animal [2, 10]: 21.4 ± 0.4 g; Body weight of animal [2, 11]: 21.1 ± 0.2 g; Body weight of animal [2, 16]: 21.8 ± 0.4 g; Body weight of animal [2, 17]: 21.1 ± 0.3 g; Body weight of animal [2, 12]: 21.6 ± 0.4 g; Body weight of animal [2, 13]: 21.6 ± 0.3 g; Body weight of animal ([2]; day 42 after inoculation, 30 mg/kg i.v. BIW×4W): 22.5 ± 0.3 g; Body weight of animal ([2]; day 42 after inoculation, 45 mg/kg i.v. QW×4W): 22.0 ± 0.3 g; Body weight of animal ([2]; day 45 after inoculation, 30 mg/kg i.v. BIW×4W): 22.2 ± 0.3 g; Body weight of animal ([2]; day 45 after inoculation, 45 mg/kg i.v. QW×4W): 22.4 ± 0.3 g; Body weight of animal ([2]; day 49 after inoculation, 30 mg/kg i.v. BIW×4W): 22.0 ± 0.3 g; Body weight of animal ([2]; day 49 after inoculation, 45 mg/kg i.v. QW×4W): 21.5 ± 0.3 g; Body weight of animal ([2]; day 52 after inoculation, 30 mg/kg i.v. BIW×4W): 22.0 ± 0.3 g; Body weight of animal ([2]; day 52 after inoculation, 45 mg/kg i.v. QW×4W): 22.1 ± 0.3 g; TGD (to 1,000 mm^3) ([3]; 30 mg/kg i.v. BIW×4W): >8; T/C (%) RTV ([3]; 30 mg/kg i.v. BIW×4W): 31%; T/C (%) TW ([3]; 30 mg/kg i.v. BIW×4W): 28%; TGD (to 1,000 mm^3) ([3]; 45 mg/kg i.v. QW×4W): >8; T/C (%) RTV ([3]; 45 mg/kg i.v. QW×4W): 38%; T/C (%) TW ([3]; 45 mg/kg i.v. QW×4W): 37%; RTV ([3]; 30 mg/kg i.v. BIW×4W): 4.39 ± 0.59; Tumor weight ([3]; 30 mg/kg i.v. BIW×4W): 449 ± 89 mg; RTV ([3]; 45 mg/kg i.v. QW×4W): 5.41 ± 0.51; Tumor weight ([3]; 45 mg/kg i.v. QW×4W): 602 ± 83 mg; Tumor volume ([3]; day 14 after inoculation, 30 mg/kg i.v. BIW×4W): 139 ± 18 mm^3; Tumor volume ([3]; day 14 after inoculation, 45 mg/kg i.v. QW×4W): 137 ± 22 mm^3; Tumor volume [3, 5]: 160 ± 25 mm^3; Tumor volume [3, 6]: 152 ± 25 mm^3; Tumor volume ([3]; day 21 after inoculation, 30 mg/kg i.v. BIW×4W): 201 ± 40 mm^3; Tumor volume ([3]; day 21 after inoculation, 45 mg/kg i.v. QW×4W): 204 ± 38 mm^3; Tumor volume [3, 8]: 241 ± 50 mm^3; Tumor volume [3, 9]: 245 ± 40 mm^3; Tumor volume [3, 14]: 274 ± 57 mm^3; Tumor volume [3, 15]: 293 ± 44 mm^3; Tumor volume [3, 10]: 335 ± 76 mm^3; Tumor volume [3, 11]: 323 ± 45 mm^3; Tumor volume [3, 16]: 422 ± 108 mm^3; Tumor volume [3, 17]: 436 ± 74 mm^3; Tumor volume [3, 12]: 504 ± 119 mm^3; Tumor volume [3, 13]: 518 ± 87 mm^3; Tumor volume ([3]; day 42 after inoculation, 30 mg/kg i.v. BIW×4W, 30 mg/kg): 627 ± 145 mm^3; Tumor volume ([3]; day 42 after inoculation, 45 mg/kg i.v. QW×4W, 45 mg/kg): 720 ± 106 mm^3; Body weight of animal ([4]; day 16 after inoculation, 30 mg/kg i.v. BIW×4W): 20.2 ± 0.6 g; Body weight of animal ([4]; day 16 after inoculation, 45 mg/kg i.v. QW×4W): 19.2 ± 0.5 g; Body weight of animal [4, 7]: 19.7 ± 0.4 g
